Data published in patent publication US11505783B2, “Differentiation of human embryonic stem cells” (Janssen Biotech, Inc., priority 2007, dated 2022).

Tested on: human embryonic stem cell line H1
Assay: FACS analysis of insulin and synaptophysin in stage 6 cultures, Chordin instead of Noggin (Example 15)
Format: cell-based
Conditions: 50-100 ng/ml at stages 3-4 instead of Noggin, compared with Noggin
Procedure: Cells were dissociated into single cells from monolayer cultures using TrypLE Express (Invitrogen, Carlsbad, Calif.) and washed in cold PBS. For fixation, cells were resuspended in 200-300 μl Cytofix/Cytoperm Buffer (BD 554722, BD, Ca) and incubated for 30 min at 4° C. Cells were washed two times in 1 ml Perm/Wash Buffer Solution (BD 554723) and resuspended in 100 μl staining/blocking solution containing 2% normal goat serum in Perm/Wash buffer. For flow cytometric analysis, cells were stained with the following primary antibodies: Anti-Insulin (Rabbit mAb, Cell Signaling No. C27C9; 1:100 dilution), Anti-Glucagon (Mouse Mab, Sigma No. G2654, 1:100); Anti-Synaptophysin (Rabbit Polyclonal antibody, DakoCytomation No A0010, 1:50); Cells were incubated for 30 min at 4° C. followed by two washes in Perm/Wash buffer and further 30 min incubation in appropriate secondary antibodies as follows: Goat anti-Rabbit Alexa 647 (Invitrogen No. A21246) or Goat anti-Mouse 647 (Invitrogen No. A21235); Goat anti-Rabbit R-PE (BioSource No. ALI4407). All secondary antibodies were used at 1:200 dilution. Cells were washed at least once in Perm/Wash buffer and analyzed using BD FACSArray. A least 10,000 events were acquired for analysis. Controls included undifferentiated H1 cells and b-TC (ATCC, VA) cell line. FIGS. 20A-20C show the percentage insulin positive and synapthophysin+ cells in stage 6 cultures. […]

B1: Chordin: known inhibitor of BMP signaling (R&D Systems) (protein, UniProt Q9H2X0 27-955, looked up)
Chordin: AGPEPPVLPIRSEKEPLPVRGAAGCTFGGKVYALDETWHPDLGEPFGVMRCVLCACEAPQWGRRTRGPGRVSCKNIKPECPTPACGQPRQLPGHCCQTCPQERSSSERQPSGLSFEYPRDPEHRSYSDRGEPGAEERARGDGHTDFVALLTGPRSQAVARARVSLLRSSLRFSISYRRLDRPTRIRFSDSNGSVLFEHPAAPTQDGLVCGVWRAVPRLSLRLLRAEQLHVALVTLTHPSGEVWGPLIRHRALAAETFSAILTLEGPPQQGVGGITLLTLSDTEDSLHFLLLFRGLLEPRSGGLTQVPLRLQILHQGQLLRELQANVSAQEPGFAEVLPNLTVQEMDWLVLGELQMALEWAGRPGLRISGHIAARKSCDVLQSVLCGADALIPVQTGAAGSASLTLLGNGSLIYQVQVVGTSSEVVAMTLETKPQRRDQRTVLCHMAGLQPGGHTAVGICPGLGARGAHMLLQNELFLNVGTKDFPDGELRGHVAALPYCGHSARHDTLPVPLAGALVLPPVKSQAAGHAWLSLDTHCHLHYEVLLAGLGGSEQGTVTAHLLGPPGTPGPRRLLKGFYGSEAQGVVKDLEPELLRHLAKGMASLMITTKGSPRGELRGQVHIANQCEVGGLRLEAAGAEGVRALGAPDTASAAPPVVPGLPALAPAKPGGPGRPRDPNTCFFEGQQRPHGARWAPNYDPLCSLCTCQRRTVICDPVVCPPPSCPHPVQAPDQCCPVCPEKQDVRDLPGLPRSRDPGEGCYFDGDRSWRAAGTRWHPVVPPFGLIKCAVCTCKGGTGEVHCEKVQCPRLACAQPVRVNPTDCCKQCPVGSGAHPQLGDPMQADGPRGCRFAGQWFPESQSWHPSVPPFGEMSCITCRCGAGVPHCERDDCSLPLSCGSGKESRCCSRCTAHRRPAPETRTDPELEKEAEGS
expression of insulin and synaptophysin by FACS: very similar expression
